Test results taken from article PMC4183563, “Protospacer Adjacent Motif (PAM)-Distal Sequences Engage CRISPR Cas9 DNA Target Cleavage”.
Changes are numbered by the printed parent chain.

B1: p53 [Exon 7] 55 bp duplex + cr20 + tracrRNA (mixed)
DNA 1: TCCACTACAAGTACATGTGTAATAGCTCCTGCATGGGGGGCATGAACCGCCGACC
DNA 2: GGTCGGCGGTTCATGCCCCCCATGCAGGAGCTATTACACATGTACTTGTAGTGGA
B2: OT#7 probe + cr20 + tracrRNA (mixed)
DNA 1: B1 DNA 1 with T20G, T23C
DNA 2: B1 DNA 2 with A33G, A36C

Key:
Cas9 (wild type) [1] = biological target: T1, Cas9 (wild type) (Streptococcus pyogenes, UniProt Q99ZW2 1-1368); assay: EMSA; 20 nM crRNA cr20, 20 nM tracrRNA; EMSA: 1 nM 32P-dsDNA, 10 nM Cas9 (or titrated), 20 nM tracrRNA, 20 nM crRNA, 2.5 ug/ml heparin, 5% native PAGE; buffer, pH and temperature as in cited ref 11 (not given); conditions: protein: recombinant; label: 32P on DNA; duplex DNA; crRNA:tracrRNA guide
Cas9 (wild type) [2] = biological target: T1, Cas9 (wild type); assay: EMSA; cr20 + tracrRNA; EMSA: 1 nM 32P-dsDNA, 10 nM Cas9 (or titrated), 20 nM tracrRNA, 20 nM crRNA, 2.5 ug/ml heparin, 5% native PAGE; buffer, pH and temperature as in cited ref 11 (not given); conditions: protein: recombinant; label: 32P on DNA; duplex DNA; crRNA:tracrRNA guide

T1 sequence (Q99ZW2 whole entry): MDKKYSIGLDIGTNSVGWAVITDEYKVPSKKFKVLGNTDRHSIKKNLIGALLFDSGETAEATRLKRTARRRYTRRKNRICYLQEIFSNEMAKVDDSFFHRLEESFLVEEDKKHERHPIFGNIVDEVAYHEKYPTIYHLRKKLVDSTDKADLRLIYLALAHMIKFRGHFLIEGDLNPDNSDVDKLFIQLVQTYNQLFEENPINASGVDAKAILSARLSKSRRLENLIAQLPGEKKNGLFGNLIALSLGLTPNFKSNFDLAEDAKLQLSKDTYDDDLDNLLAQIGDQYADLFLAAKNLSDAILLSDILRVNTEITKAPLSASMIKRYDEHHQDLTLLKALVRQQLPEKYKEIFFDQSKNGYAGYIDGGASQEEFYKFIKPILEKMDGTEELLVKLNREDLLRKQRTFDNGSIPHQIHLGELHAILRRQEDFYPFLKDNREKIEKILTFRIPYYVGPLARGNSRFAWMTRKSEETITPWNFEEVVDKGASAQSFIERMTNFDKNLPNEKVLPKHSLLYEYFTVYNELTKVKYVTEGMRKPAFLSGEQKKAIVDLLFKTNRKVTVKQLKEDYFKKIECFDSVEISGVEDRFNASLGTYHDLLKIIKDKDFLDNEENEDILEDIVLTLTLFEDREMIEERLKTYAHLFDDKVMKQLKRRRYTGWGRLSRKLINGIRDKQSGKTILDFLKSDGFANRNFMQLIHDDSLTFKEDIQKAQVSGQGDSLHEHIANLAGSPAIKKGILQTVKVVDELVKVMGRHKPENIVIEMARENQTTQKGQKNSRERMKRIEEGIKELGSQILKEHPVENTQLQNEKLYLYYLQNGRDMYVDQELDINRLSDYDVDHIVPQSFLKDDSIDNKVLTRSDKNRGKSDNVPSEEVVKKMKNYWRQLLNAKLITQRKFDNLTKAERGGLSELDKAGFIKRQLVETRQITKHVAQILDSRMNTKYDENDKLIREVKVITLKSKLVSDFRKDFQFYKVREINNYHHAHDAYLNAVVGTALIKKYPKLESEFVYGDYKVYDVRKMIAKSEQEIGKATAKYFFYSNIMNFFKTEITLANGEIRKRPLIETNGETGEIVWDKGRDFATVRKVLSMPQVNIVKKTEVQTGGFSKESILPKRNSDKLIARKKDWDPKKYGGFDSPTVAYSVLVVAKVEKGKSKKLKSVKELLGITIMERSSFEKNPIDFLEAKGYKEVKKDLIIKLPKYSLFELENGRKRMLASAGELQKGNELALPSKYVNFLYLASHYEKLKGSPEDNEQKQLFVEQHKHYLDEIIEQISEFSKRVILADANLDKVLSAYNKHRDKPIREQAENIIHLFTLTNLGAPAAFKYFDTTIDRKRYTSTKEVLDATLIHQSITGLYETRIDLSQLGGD

Binder	Kd (Cas9 (wild type) [1]) [nM]	binding result (Cas9 (wild type) [2])
B1	1.5 ± 0.1	–
B2	–	binds
